Results from publication PMC9239997, “Structural basis for mitoguardin-2 mediated lipid transport at ER-mitochondrial membrane contact sites” (Nature Communications, 2022).
[ ]: non-standard residue; d: D form. pS = N[C@@H](COP(=O)(O)O)C(=O)O

B2: MSP domain of mouse VAPB (residues 1-125) K87L/K118L (domain or fragment, UniProt Q9QY76 1-125, looked up)
chain: MAKVEQVLSLEPQHELKFRGPFTDVVTTNLKLGNPTDRNVCFKVKTTVPRRYCVRPNSGVIDAGASLNVSVMLQPFDYDPNEKSKHLFMVQSMFAPPDTSDMEAVWKEAKPEDLMDSLLRCVFEL
notes: VAPB, Mus musculus, MSP domain, residues 1-125, with K87L and K118L; also called mVAPB K87L/K118L
B3: phosphorylated FFAT motif peptide of mouse MIGA2 (residues 289-298) (peptide)
peptide: Ac-SED[pS]FF[pS]ATE-NH2
SMILES: CC(=O)N[C@@H](CO)C(=O)N[C@@H](CCC(=O)O)C(=O)N[C@@H](CC(=O)O)C(=O)N[C@@H](COP(=O)(O)O)C(=O)N[C@@H](Cc1ccccc1)C(=O)N[C@@H](Cc1ccccc1)C(=O)N[C@@H](COP(=O)(O)O)C(=O)N[C@@H](C)C(=O)N[C@H](C(=O)N[C@@H](CCC(=O)O)C(N)=O)[C@@H](C)O
notes: also called mMIGA2^pFFAT; source: synthetic peptide, purified by HPLC
B4: mouse MIGA2 residues 275-570, S292E/S295D (domain or fragment, mouse (Mus musculus), UniProt Q8BK03 275-570, looked up)
chain: GSLRLRADDEDSLTSEDEFFDATEIFESLQIGEYPLPLSRPAAAYEEALQLVKEGRVPCRTLRTELLGCYSDQDFLAKLHCVRQAFEGLLEERSNQIFFGEVGRQMVTGLMTKAEKSPKGFLESYEEMLSYALRPETWATTRLELEGRGVACMSFFDIVLDFILMDAFEDLENPPSSVLAVLRNRWLSDSFKETALATACWSVLKAKRRLLMVPDGFISHFYSVSEHVSPVLAFGFLGPKPQLSEVCAFFKHQIVQYLRDMFDLDNVRYTSVPALAEDILQLSRRRSEILLGYLGA
B5: MSP domain of mouse VAPB (residues 1-125) K43L/K45L (domain or fragment, UniProt Q9QY76 1-125, looked up)
chain: MAKVEQVLSLEPQHELKFRGPFTDVVTTNLKLGNPTDRNVCFLVLTTVPRRYCVRPNSGVIDAGASLNVSVMLQPFDYDPNEKSKHKFMVQSMFAPPDTSDMEAVWKEAKPEDLMDSKLRCVFEL
notes: VAPB, Mus musculus, MSP domain, residues 1-125, with K43L and K45L; also called mVAPB K43L/K45L
B6: MSP domain of mouse VAPB (residues 1-125) (domain or fragment, mouse (Mus musculus), UniProt Q9QY76 1-125, looked up)
chain: MAKVEQVLSLEPQHELKFRGPFTDVVTTNLKLGNPTDRNVCFKVKTTVPRRYCVRPNSGVIDAGASLNVSVMLQPFDYDPNEKSKHKFMVQSMFAPPDTSDMEAVWKEAKPEDLMDSKLRCVFEL
notes: vesicle-associated membrane protein-associated protein B/C (VAPB), mouse, MSP domain, residues 1-125; In the liposome clustering (DLS) and tethered lipid transfer assays a His-tagged form (His-mVAPB) was used; also called mVAPB; wild-type mVAPB

Columns and labels:
zMiga2 = target: T1, zMiga2 (Danio rerio, UniProt Q5BLE2); test: FRET lipid transfer between liposomes; format: biochemical; settings: labelled compound; 100 nM protein, pH 7.0, room temperature; transport, not chemical turnover
T1 construct: gene miga2; LD targeting domain, residues 310-568; E. coli BL21(DE3); His6 tag cleaved by TEV
T1 sequence (Q5BLE2 310-568): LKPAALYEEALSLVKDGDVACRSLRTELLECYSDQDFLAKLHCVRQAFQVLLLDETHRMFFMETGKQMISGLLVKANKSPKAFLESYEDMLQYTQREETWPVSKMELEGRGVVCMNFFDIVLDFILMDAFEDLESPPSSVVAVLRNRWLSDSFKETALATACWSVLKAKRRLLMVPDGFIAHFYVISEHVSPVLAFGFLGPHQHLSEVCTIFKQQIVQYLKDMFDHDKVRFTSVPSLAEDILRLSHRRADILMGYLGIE

[1] = target: T2, mouse MIGA2 residues 275-570 S292E (mouse, UniProt Q8BK03 275-570, S292E); test: ITC; mVAPB (wild type or mutant) in the syringe, mMIGA2^275-570 or mMIGA2^pFFAT in the cell; Microcal ITC200, 25 °C, 25 mM Tris-HCl pH 7.5, 150 mM NaCl, 4 mM β-mercaptoethanol; 20 injections of 2 μl; 1:1 binding model; settings: both partners purified
T2 construct: source: E. coli BL21 (DE3), purified as the wild type (Ni2+-chelated HiTrap, tag cleaved by TEV, size exclusion chromatography)
T2 sequence (looked up): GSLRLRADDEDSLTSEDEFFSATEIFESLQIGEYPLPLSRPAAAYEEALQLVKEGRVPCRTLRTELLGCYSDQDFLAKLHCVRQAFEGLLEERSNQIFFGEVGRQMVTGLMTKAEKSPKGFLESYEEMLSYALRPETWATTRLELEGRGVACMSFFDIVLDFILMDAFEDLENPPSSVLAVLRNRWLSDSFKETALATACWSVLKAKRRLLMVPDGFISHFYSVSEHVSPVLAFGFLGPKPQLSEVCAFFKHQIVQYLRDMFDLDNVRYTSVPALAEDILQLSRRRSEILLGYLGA

[2] = target: T3, mouse MIGA2 residues 275-570 S295D (mouse, UniProt Q8BK03 275-570, S295D); test: as above; settings: both partners purified
T3 construct: source: E. coli BL21 (DE3), purified as the wild type (Ni2+-chelated HiTrap, tag cleaved by TEV, size exclusion chromatography)
T3 sequence (looked up): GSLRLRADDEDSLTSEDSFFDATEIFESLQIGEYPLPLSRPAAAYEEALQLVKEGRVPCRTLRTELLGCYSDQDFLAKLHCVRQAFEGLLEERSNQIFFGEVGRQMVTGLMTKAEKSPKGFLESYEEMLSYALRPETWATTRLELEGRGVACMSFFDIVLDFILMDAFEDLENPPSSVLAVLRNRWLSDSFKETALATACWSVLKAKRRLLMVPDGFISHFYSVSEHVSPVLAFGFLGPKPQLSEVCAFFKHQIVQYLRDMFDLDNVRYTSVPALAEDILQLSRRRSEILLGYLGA

[3] = target: T4, mouse MIGA2 residues 275-570 S292E/S295D (mouse, UniProt Q8BK03 275-570, S292E | S295D); test: as above; settings: both partners purified
T4 construct: source: E. coli BL21 (DE3), purified as the wild type (Ni2+-chelated HiTrap, tag cleaved by TEV, size exclusion chromatography)
T4 sequence (looked up): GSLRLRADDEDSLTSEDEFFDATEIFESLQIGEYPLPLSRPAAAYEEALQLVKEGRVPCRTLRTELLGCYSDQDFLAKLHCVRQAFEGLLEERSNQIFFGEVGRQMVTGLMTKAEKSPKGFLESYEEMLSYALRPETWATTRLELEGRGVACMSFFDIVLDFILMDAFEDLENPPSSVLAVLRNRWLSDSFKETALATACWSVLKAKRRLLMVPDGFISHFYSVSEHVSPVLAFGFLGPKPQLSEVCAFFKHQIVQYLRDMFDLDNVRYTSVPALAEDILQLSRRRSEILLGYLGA

[4] = target: B3; test: as above; settings: both partners purified
[5] = target: B5; test: as above; settings: both partners purified
[6] = target: B2; test: as above; settings: both partners purified
[7] = target: B6; test: cell-based or functional assay
[8] = target: T5, mouse MIGA2 residues 275-570, S292E (mouse (Mus musculus), UniProt Q8BK03 275-570, S292E); test: ITC; Microcal ITC200, 25 °C, buffer C (25 mM Tris-HCl pH 7.5, 150 mM NaCl, 4 mM β-mercaptoethanol); 20 injections of 2 μl; 1:1 binding model; settings: both partners purified
T5 construct: also called S292E phosphorylation mimic mutant; source: E. coli BL21 (DE3), purified (Ni2+-chelated HiTrap, TEV cleavage, SEC)
T5 sequence (looked up): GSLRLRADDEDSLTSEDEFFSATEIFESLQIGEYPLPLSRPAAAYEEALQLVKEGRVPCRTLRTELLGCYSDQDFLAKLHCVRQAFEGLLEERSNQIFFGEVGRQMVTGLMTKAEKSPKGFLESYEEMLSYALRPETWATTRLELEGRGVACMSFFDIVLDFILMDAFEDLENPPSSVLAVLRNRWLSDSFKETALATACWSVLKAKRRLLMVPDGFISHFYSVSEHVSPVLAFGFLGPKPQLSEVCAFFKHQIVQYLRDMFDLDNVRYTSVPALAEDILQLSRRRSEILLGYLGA

[9] = target: T6, mouse MIGA2 residues 275-570, S295D (mouse (Mus musculus), UniProt Q8BK03 275-570, S295D); test: as above; settings: both partners purified
T6 construct: also called S295D phosphorylation mimic mutant; source: E. coli BL21 (DE3), purified (Ni2+-chelated HiTrap, TEV cleavage, SEC)
T6 sequence (looked up): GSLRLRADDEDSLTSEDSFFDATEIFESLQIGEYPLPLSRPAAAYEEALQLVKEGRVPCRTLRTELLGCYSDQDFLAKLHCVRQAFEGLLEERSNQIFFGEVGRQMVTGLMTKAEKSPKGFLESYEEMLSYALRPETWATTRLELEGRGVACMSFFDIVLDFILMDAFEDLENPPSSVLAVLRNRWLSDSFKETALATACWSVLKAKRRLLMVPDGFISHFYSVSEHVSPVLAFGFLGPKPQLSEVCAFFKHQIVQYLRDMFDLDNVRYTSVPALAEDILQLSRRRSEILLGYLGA

[10] = target: B4; test: as above; settings: both partners purified
[11] = target: the molecule itself; test: SEC; Superdex 200 increase 10/300 GL, 25 mM Tris-HCl pH 7.5, 150 mM NaCl, 5 mM DTT; proteins injected at 2–4 mg/ml; elution compared with molecular mass standards

CCCCCCCCCCCCCCCC(=O)OC[C@H](COP(=O)(O)O)OC(=O)CCCCCCCCCCCNc1ccc([N+](=O)[O-])c2nonc12 [NBD-PA, 1-palmitoyl-2-{12-[(7-nitro-2-1,3-benzoxadiazol-4-yl)amino]dodecanoyl}-sn-glycero-3-phosphate]
FRET lipid transfer between liposomes (zMiga2): zMiga2 transfers not only PS, but also PE, PC, and PA

CCCCCCCCCCCCCCCC(=O)OC[C@H](COP(=O)(O)OC[C@H](N)C(=O)O)OC(=O)CCCCCCCCCCCNc1ccc([N+](=O)[O-])c2nonc12 [NBD-PS, 1-palmitoyl-2-{12-[(7-nitro-2-1,3-benzoxadiazol-4-yl)amino]dodecanoyl}-sn-glycero-3-phosphoserine]
FRET lipid transfer between liposomes (zMiga2): zMiga2 transferred PS more rapidly than other phospholipids

B1: MSP domain of mouse VAPB (residues 1-125) (domain or fragment, UniProt Q9QY76 1-125, looked up)
chain: MAKVEQVLSLEPQHELKFRGPFTDVVTTNLKLGNPTDRNVCFKVKTTVPRRYCVRPNSGVIDAGASLNVSVMLQPFDYDPNEKSKHKFMVQSMFAPPDTSDMEAVWKEAKPEDLMDSKLRCVFEL
notes: vesicle-associated membrane protein-associated protein B/C (VAPB), Mus musculus, MSP domain, residues 1-125; Cloned into pGEX-6P-1; the pull-down used a GST-fused form, which is not this molecule; also called mVAPB; mVAPB WT
stoichiometry N [1]: 0.633 ± 0.071 | stoichiometry N [2]: 0.501 ± 0.013 | stoichiometry N [3]: 0.658 ± 0.009 | stoichiometry N [4]: 0.755 ± 0.07

B2
stoichiometry N [4]: 0.698 ± 0.071

B3
Kd [5]: 8.6 ± 1.4 µM | Kd [6]: 5 ± 0.4 µM

B4
liposome particle size by DLS: donor liposomes pre-anchored with His-mVAPB mixed with acceptor liposomes pre-anchored with His-mMIGA2^275-570 (S292E/S295D), compared with wild-type His-mMIGA2^275-570 [7]: ~5 fold

B5
stoichiometry N [4]: 1.04 ± 0.027

B6
Kd [8]: 26.4 ± 6.8 µM | Kd [9]: 8.1 ± 1.5 µM | Kd [10]: 2500 ± 300 nM

B7: mouse MIGA2 middle domain, residues 161-300 (domain or fragment, UniProt Q8BK03 161-300, looked up)
chain: GMEESVPTTDGSAESLYVQGMELFEEALQKWEQALSVGQRGDGGSTPTPGDSLQNPDTASEALSEPESQRREFAEKLESLLHRAYHLQEEFGSTFPSDSMLLDLERTLMLPLTEGSLRLRADDEDSLTSEDSFFSATEIF
notes: Oligomer of unstated size by SEC; also called central MIGA2 domain; source: E. coli BL21 (DE3), purified (Ni2+-chelated HiTrap, tag cleaved by TEV, size exclusion chromatography)
binding result [11]: binds

B8: mouse MIGA2 residues 161-570 (domain or fragment, UniProt Q8BK03 161-570, looked up)
chain: GMEESVPTTDGSAESLYVQGMELFEEALQKWEQALSVGQRGDGGSTPTPGDSLQNPDTASEALSEPESQRREFAEKLESLLHRAYHLQEEFGSTFPSDSMLLDLERTLMLPLTEGSLRLRADDEDSLTSEDSFFSATEIFESLQIGEYPLPLSRPAAAYEEALQLVKEGRVPCRTLRTELLGCYSDQDFLAKLHCVRQAFEGLLEERSNQIFFGEVGRQMVTGLMTKAEKSPKGFLESYEEMLSYALRPETWATTRLELEGRGVACMSFFDIVLDFILMDAFEDLENPPSSVLAVLRNRWLSDSFKETALATACWSVLKAKRRLLMVPDGFISHFYSVSEHVSPVLAFGFLGPKPQLSEVCAFFKHQIVQYLRDMFDLDNVRYTSVPALAEDILQLSRRRSEILLGYLGA
notes: Oligomer of unstated size by SEC; source: E. coli BL21 (DE3), purified (Ni2+-chelated HiTrap, tag cleaved by TEV, size exclusion chromatography)
binding result [11]: binds
